# Data as given in patent publication US20240301052A1 (LANOVA MEDICINES DEVELOPMENT, published 2024).
# B1: xi63A11D5B4 hIgG1 (antibody, V domains shown)
# VH: QVQLQQPGAELVKPGASVKMSCRTSGYTFITYNMHWVKQTPGQGREWIGAIYPGNGDTSYNQKFKGKATLTADKSSSTAYMQLNSLTSEDSAVYYCSISTIITTGAVDYWGQGTSVTVAS
# VL: DIVMTQSHKFMSTSVGDRVSITCKASQDVGTAVAWYQQKAGQSPKLLIYWTSTRHTGVPDRFTGSGSGTDFTLIIRSLQSEDLADYFCQQYSRIPLTFGSGTKLEIK
# notes: chimeric, hIgG1
# B2: 30H9B8F9.p1.z5 hIgG1 (antibody, V domains shown)
# VH: QVQLVQSGAEVKKPGASVKVSCKTSGYTFTTNNMHWVRQAPGQGLEWIGAIYPGSGATAYNQKFKGRVTMTADTSTSTVYMELSSLRSEDTAVYYCARGMYGHGAMDYWGQGTLVTVSS
# VL: DIQLTQSPSFLSASVGDRVTITCKASQDVGTAVAWYQQKPGKAPKLLIYWATTRHSGVPSRFSGSGSGTEFTLTISSLQPEDFATYYCQQYSSNPLTFGQGTKLEIK
# notes: humanized hIgG1
# B3: 62G10E4G8.p3.z15 hIgG1 (antibody, V domains shown)
# VH: QVQLVQSGAEVVKPGASVKMSCKASGYTFPSYITHWVKQAPGQGLEWIGAIYPGNADTSYIQKFKGRATLTADKSTSTAYMELSSLRSEDTAVYYCARGTYGTSAWFTYWGQGTLVTVSS
# VL: EIVLTQSPATLSVSPGERATLSCRARQNIGNNLYWYQQKPGQSPRLLIKYASQSISGIPSRFSGSGSGTDFTLTISSLQSEDFAVYFCQQSFSWPLTFGQGTKLEIK
# notes: humanized hIgG1
# B4: xi62G10E4G8 hIgG1 (antibody, V domains shown)
# VH: QVQLQQSGAEVVKPGASVKMSCKASGYTFPSYITHWVKQTPGQGLEWIGAIYPGNGDTSYIQKFKGKATLTADKSSSTAYMQLSSLTSEDSAVYYCARGTYGTSAWFTYWGQGTLVTVSA
# VL: DIVLTQSPATLSVTPGDSVSLSCRARQNIGNNLYWYQQKSHESPRLLIKYASQSISGIPSRFSGSGSGTDFTLTINSVETEDFGVYFCQQSFSWPLTFGAGTKLELK
# notes: chimeric, hIgG1
# B5: xi30H9B8F9 hIgG1 (antibody, V domains shown)
# VH: QVQLQQPGAELVKPGASVKMSCKTSGYTFTTNNMHWVKQTPGQGLEWIGAIYPGNGATAYNQKFKGKATLTADKSSSTAYMQLSSLTSEASAVYYCARGMYGHGAMDYWGQGTSVIVSS
# VL: DIVMTQSHKFMSRSVGDRVRITCKASQDVGTAVAWYQQKPGQSPKLLIYWATTRHSGVPDRFTGSGSGTDFIFTISNVQSEDLADYFCQQYSSNPLTFGAGTKLELK
# notes: chimeric, hIgG1
# B6: 91C9F1.p1.z7 hIgG1 (antibody, V domains shown)
# VH: QVQLVQSGAEVKKPGSSVKVSCKTSGFFFTEYIIHWVRQAPGQGLEWIGGIIPNNDVTNYKQNFRGRVTLTADKSTSTAYMELSSLRSEDTAVYYCARWRNAYYSAMDSWGQGTTVTVSS
# VL: DIQVTQSPSSLSTSVGDRVTITCTASQDVGTAVAWYQQKPGKSPKLLIYWASTRHTGVPERFTGSGSGTDFTLTISSVQPEDVATYFCQQYRTSPLTFGVGTKVEIK
# notes: humanized hIgG1
# B7: xi91C9F1 hIgG1 (antibody, V domains shown)
# VH: EVQLQQSGPELVKPGTSVKISCKTSGFFFTEYIIHWVKQSHGRSLEWIGGIIPNNGVTNYKQNFRGKAALTADKSSNTAYMELRSLTSEDSAVYYCARWRNGYYSAMDSWGQGTSVTVSS
# VL: DIVVTQSHKFMSTSLGDRVSITCTASQDVGTAVAWYQQKPGHSPKLLIYWASTRHTGVPERFTGSGSGTDFTLTITNVQSEDLADYFCQQYRTSPLTFGVGTKLELK
# notes: chimeric, hIgG1
# B8: 63A11D5B4.p1.z9 hIgG1 (antibody, V domains shown)
# VH: QVQLVQSGAEVVKPGASVKMSCKTSGYTFITYNMHWVRQAPGQGLEWIGAIYPGSGDTSYNQKFKGRVTLTADKSTSTAYMELSSLRSEDTAVYYCSISTIITTGAVDYWGQGTLVTVSS
# VL: DIQMTQSPSSLSASVGDRVTITCKASQDVGTAVAWYQQKPGKVPKLLIYWTSTRHTGVPSRFSGSGSGTDFTLTISSLQPEDVATYYCQQYSRIPLTFGGGTKVEIK
# notes: humanized hIgG1
# Tests used:
# human SLC34A2 [1] = biological target: T1, human SLC34A2 (human, UniProt O95436 1-690); experiment: FACS, OVCAR3 cells
# T1 construct: whole, on cells; also called human solute carrier 34 A2; NaPi2b
# T1 sequence (looked up): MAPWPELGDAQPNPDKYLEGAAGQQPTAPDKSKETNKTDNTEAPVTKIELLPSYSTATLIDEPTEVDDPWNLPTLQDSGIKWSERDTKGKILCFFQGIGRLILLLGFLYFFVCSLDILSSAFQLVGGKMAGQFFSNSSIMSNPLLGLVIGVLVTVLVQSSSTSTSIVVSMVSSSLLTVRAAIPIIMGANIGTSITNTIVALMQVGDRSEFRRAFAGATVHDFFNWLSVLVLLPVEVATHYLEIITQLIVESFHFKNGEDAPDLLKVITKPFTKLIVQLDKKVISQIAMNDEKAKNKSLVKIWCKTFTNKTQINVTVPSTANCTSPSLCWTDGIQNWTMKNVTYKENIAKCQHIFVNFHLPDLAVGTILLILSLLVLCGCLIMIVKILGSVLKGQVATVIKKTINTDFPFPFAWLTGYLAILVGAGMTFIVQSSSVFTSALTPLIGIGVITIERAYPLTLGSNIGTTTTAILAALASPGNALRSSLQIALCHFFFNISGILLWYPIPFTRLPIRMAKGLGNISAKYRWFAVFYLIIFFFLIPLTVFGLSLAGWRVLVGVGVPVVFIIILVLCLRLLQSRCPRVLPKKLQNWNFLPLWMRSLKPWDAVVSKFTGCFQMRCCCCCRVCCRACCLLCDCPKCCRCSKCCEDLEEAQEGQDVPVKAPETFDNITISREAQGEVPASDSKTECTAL
# How it was run: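 Chimeric hIgG1 antibodies titrated from 200 nM (4-fold, 8 points) on OVCAR3 cells or HEK293 cells expressing human SLC34A2, 60 min at 4° C. Bound antibody detected with fluorescent secondary antibody (30 min, 4° C) and measured by flow cytometry.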
# human SLC34A2 [2] = biological target: T1, human SLC34A2; experiment: FACS, HEK293/human SLC34A2 cells
# Experimental: Briefly, OVCAR3 cells or HEK293 cells expressing human SLC34A2 were incubated with chimeric antibodies (from 200 nM, 4 folds dilution, 8 points). After incubation at 4° C. for 60 minutes, the cells were washed with FACS buffer twice, then stained with fluorescent conjugated secondary antibody at 4° C. for 30 minutes. After that the cells were washed twice and analyzed by flow cytometry.
# human SLC34A2 [3] = biological target: T1, human SLC34A2; experiment: FACS, HEK293/human SLC34A2 cells; remark: listed apart in the source
# Experimental: The PTM-derisked VH chains were first tested for their impact on target binding. Cell based binding of PTM Abs on human SLC34A2 expressing cells were assessed using flow cytometry. Briefly, the HEK293/H_SLC34A2 cells were incubated with PTM Abs (from 200 nM, 4 folds dilution, 8 points). After incubation at 4° C. for 60 minutes, the cells were washed with FACS buffer twice, then stained with fluorescent conjugated secondary antibody at 4° C. for 30 minutes. After that the cells were washed twice and analyzed by flow cytometry.
# human SLC34A2 [4] = biological target: T1, human SLC34A2; experiment: FACS, OVCAR3 cells; remark: listed apart in the source
# Experimental: The binding of these humanized antibodies to OVCAR3 cells was evaluated as described above, and the results are shown in FIG. 12A-D and Tables 16A-D.
# Cynomolgus SLC34A2 = biological target: T2, Cynomolgus SLC34A2 (Cynomolgus, UniProt A0A2K5UHY1 1-690); experiment: FACS, cells expressing Cynomolgus SLC34A2
# T2 construct: whole, on cells; also called Cyno SLC34A2
# T2 sequence: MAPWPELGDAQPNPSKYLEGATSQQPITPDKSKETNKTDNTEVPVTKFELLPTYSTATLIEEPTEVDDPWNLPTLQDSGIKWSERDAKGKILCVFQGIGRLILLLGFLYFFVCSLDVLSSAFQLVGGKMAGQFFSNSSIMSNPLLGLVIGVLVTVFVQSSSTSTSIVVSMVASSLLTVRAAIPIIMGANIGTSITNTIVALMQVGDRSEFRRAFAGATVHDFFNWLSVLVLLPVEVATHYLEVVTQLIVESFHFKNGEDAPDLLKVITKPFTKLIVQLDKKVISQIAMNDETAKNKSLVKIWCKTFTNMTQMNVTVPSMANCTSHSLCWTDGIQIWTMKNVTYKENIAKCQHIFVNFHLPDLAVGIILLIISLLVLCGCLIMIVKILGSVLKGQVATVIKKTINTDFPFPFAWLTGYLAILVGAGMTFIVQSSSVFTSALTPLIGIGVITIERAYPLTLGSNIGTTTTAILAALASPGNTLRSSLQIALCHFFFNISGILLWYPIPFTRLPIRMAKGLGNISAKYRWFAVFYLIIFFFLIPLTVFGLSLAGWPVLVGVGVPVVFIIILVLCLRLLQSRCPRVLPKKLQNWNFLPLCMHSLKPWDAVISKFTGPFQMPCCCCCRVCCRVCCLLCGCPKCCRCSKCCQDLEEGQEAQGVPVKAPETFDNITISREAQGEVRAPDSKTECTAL
# mouse SLC34A2 = biological target: T3, mouse SLC34A2 (mouse, UniProt Q9DBP0 1-697); experiment: FACS, HEK293/Mouse SLC34A2 cells
# T3 construct: whole, on cells
# T3 sequence (looked up): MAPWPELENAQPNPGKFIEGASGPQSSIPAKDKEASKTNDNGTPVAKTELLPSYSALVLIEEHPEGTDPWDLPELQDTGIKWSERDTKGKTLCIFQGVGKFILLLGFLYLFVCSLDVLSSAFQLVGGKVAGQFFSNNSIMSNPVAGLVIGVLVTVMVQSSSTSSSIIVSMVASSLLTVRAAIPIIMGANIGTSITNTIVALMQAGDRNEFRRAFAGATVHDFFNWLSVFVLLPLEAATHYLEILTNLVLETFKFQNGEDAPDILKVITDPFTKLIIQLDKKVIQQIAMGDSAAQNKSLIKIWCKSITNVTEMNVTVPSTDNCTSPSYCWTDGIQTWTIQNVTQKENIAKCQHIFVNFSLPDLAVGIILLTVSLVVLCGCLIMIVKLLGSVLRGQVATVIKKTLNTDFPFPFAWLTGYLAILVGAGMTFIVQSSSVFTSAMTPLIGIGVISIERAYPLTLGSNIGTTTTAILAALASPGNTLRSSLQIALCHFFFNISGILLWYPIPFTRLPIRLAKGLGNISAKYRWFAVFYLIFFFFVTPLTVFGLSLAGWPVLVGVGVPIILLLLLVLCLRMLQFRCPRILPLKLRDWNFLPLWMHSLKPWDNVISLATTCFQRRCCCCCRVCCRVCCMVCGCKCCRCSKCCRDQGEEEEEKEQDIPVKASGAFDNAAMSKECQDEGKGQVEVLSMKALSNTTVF
# human SLC34A2 [5] = biological target: T1, human SLC34A2; experiment: FACS, HEK293/human SLC34A2 cells; remark: listed apart in the source
Binder,EC50 (human SLC34A2 [1]) [nM],Top (MFI) (human SLC34A2 [1]),EC50 (human SLC34A2 [2]) [nM],Top (MFI) (human SLC34A2 [2]),EC50 (human SLC34A2 [3]) [nM],Top (MFI) (human SLC34A2 [3]),EC50 (human SLC34A2 [4]) [nM],Top (MFI) (human SLC34A2 [4]),EC50 (Cynomolgus SLC34A2) [nM],EC50 (mouse SLC34A2) [nM],EC50 (human SLC34A2 [5]) [nM]
B1,3.85,43000,1.5,103000,2.13,30400,–,–,–,–,–
B2,–,–,–,–,–,–,1.43,26900,0.97,2.06,2.4
B3,–,–,–,–,–,–,3.76,27300,1.63,5.74,2.86
B4,2.55,43000,1.28,101000,1.95,30300,3.73,27600,–,–,–
B5,0.53,41900,0.96,107000,1.14,32200,1.19,29300,–,–,–
B6,–,–,–,–,–,–,–,–,45.7,3.34,2.72
B7,1.64,26400,1.06,44800,1.57,28600,–,–,–,–,–
B8,–,–,–,–,–,–,–,–,4.45,5.38,5.87
